# Results as given in article doi:10.1101/869594 (bioRxiv, 2019).
# “And” between values parts separate entries of the source, which are not always exact repeats. Identical values can stand only once.
# B1: N-terminal membrane anchoring domain of mycobacterial Wag31 (domain or fragment)
# chain: PLTPADVHNVAFSKPPIGKRGYNEDEVDAFLDLVENELTRLIEENSDLRQRINELDQEL
# Molecular target: the molecule itself
# Test: crystal structure
protein,measurement,value
B1,stoichiometry N,2 and 4
